From patent US20130142802A1 (published 2013) come the findings set out here.

In this experiment the target is T1, dcFv-01 (Fc-fusion of human scFv Clone 1) (human).
T1 construct: scFv-1 fragment fused to the N-terminus of human IgG1 Fc; bivalent; also called dcFv-1; clone dcFv-1; not shown: human IgG1 Fc of vector pFUSE-hIgG1e2-Fc2(IL2ss) (Invivogen)
In words: immunocytochemical staining of CHO cells transiently expressing FGFR2IIIb.

B1: Flag-FGFR2-IIIb expressed on CHO cells (receptor, human)
chain: RPSFSLVEDTTLEPEEPPTKYQISQPEVYVAAPGESLEVRCLLKDAAVISWTKDGVHLGPNNRTVLIGEYLQIKGATPRDSGLYACTASRTVDSETWYFMVNVTDAISSGDDEDDTDGAEDFVSENSNNKRAPYWTNTEKMEKRLHAVPAANTVKFRCPAGGNPMPTMRWLKNGKEFKQEHRIGGYKVRNQHWSLIMESVVPSDKGNYTCVVENEYGSINHTYHLDVVERSPHRPILQAGLPANASTVVGGDVEFVCKVYSDAQPHIQWIKHVEKNGSKYGPDGLPYLKVLKHSGINSSNAEVLALFNVTEADAGEYICKVSNYIGQANQSAWLTVLPKQQAPGREKEITASPDYLEIAIYCIGVFLIACMVVTVILCRMKNTTKKPDFSSQPAVHKLTKRIPLRRQVTVSAESSSSMNSNTPLVRITTRLSSTADTPMLAGVSEYELPEDPKWEFPRDKLTLGKPLGEGCFGQVVMAEAVGIDKDKPKEAVTVAVKMLKDDATEKDLSDLVSEMEMMKMIGKHKNIINLLGACTQDGPLYVIVEYASKGNLREYLRARRPPGMEYSYDINRVPEEQMTFKDLVSCTYQLARGMEYLASQKCIHRDLAARNVLVTENNVMKIADFGLARDINNIDYYKKTTNGRLPVKWMAPEALFDRVYTHQSDVWSFGVLMWEIFTLGGSPYPGIPVEELFKLLKEGHRMDKPANCTNELYMMMRDCWHAVPSQRPTFKQLVEDLDRILTLTTNEEYLDLSQPLEQYSPSYPDTRSSCSSGDDSVFSPDPMPYEPCLPQYPHINGSVKT
notes: whole, on cells; also called CHO-FGFR2-IIIb; FGFR2-IIIb-expressing CHO cells; not shown: Flag-tag at the N-terminus
For the molecule B1, the binding result was “no binding”.
